Where “and” joins values, the source holds several entries; their conditions need not be identical. Equal values may be shown once.

The values that follow come from patent publication US20040059519A1.

The target of assay [1] is Alpha fetoprotein (UniProt P02771). Description: multiplex no-wash sandwich, S10473 beads; serum Level 2, AFP 53.8 U/mL.
Assay [2] shares this target. Description: multiplex no-wash sandwich, S10473 beads; serum Level 3D, AFP 111.5 U/mL.
For assay [3], the target named is Human chorionic gonadotropin (human) (UniProt P01215). Put plainly: anti-AFP capture beads, flow cytometry; hCG 100.0 ng/mL, anti-AFP probe. (In general: A flow cytometer gives signals particle by particle.)
For assay [4], the target named is Alpha fetoprotein (UniProt P02771). Description: multiplex sandwich, S10473 capture beads; AFP 8 ng/mL, washed.
Assay [5] has the same target. Description: multiplex sandwich, S10473 capture beads; AFP 4 ng/mL, washed.
For assay [6] the target is unchanged. Put plainly: multiplex sandwich, S10473 capture beads; AFP 1 ng/mL, washed.
For assay [7] the target is unchanged. Put plainly: multiplex sandwich, S10473 capture beads; AFP 16 ng/mL, washed.
Assay [8] shares this target. Description: multiplex sandwich, S10473 capture beads; AFP 250 ng/mL, washed.
Assay [9] shares this target. Description: multiplex sandwich, S10473 capture beads; AFP 500 ng/mL, no wash.
The target of assay [10] is Human chorionic gonadotropin (human) (UniProt P01215). Put plainly: MAB602 capture beads, flow cytometry; hCG 0.0 ng/mL, anti-AFP probe.
Assay [11] concerns the target Alpha fetoprotein (UniProt P02771). Put plainly: anti-AFP capture beads, flow cytometry; AFP 10.0 ng/mL, anti-AFP probe.
Assay [12] shares this target. Description: multiplex sandwich, S10473 capture beads; AFP 1000 ng/mL, no wash.
The target is the same in assay [13]. Put plainly: multiplex sandwich, S10473 capture beads; AFP 0 ng/mL, no wash.
The target in assay [14] is Peptide 3 …-biotin. Description: single-analyte peptide bead, flow cytometry; MAB 384-Bodipy 15.5 ug/mL.
In assay [15] the target is Peptide 9 …-biotin. Described as above.
Assay [16] deals with Peptide 2 …-biotin. The assay is described as above.
Assay [17] concerns the target Peptide 6 …-biotin. The description is as above.
The target in assay [18] is Peptide 4 …-biotin. The assay is described as above.
Assay [19] has as its target Neutravidin (deglycosylated avidin) (UniProt P02701). Description: multiplex, Neutravidin bead 70/60 without peptide, flow cytometry.
Assay [20] has the same target. Description: multiplex, Neutravidin bead 40/50 without peptide, flow cytometry.
Assay [21] shares this target. Description: single-analyte, Neutravidin bead 40/50 without peptide, flow cytometry.
Assay [22] deals with Human chorionic gonadotropin (human) (UniProt P01215). Put plainly: sandwich, MAB602 capture beads, flow cytometry; hCG 0.002 ng/mL.
The target is the same in assay [23]. Description: multiplex sandwich, MAB602 capture beads; hCG 500 ng/mL, no wash.
Assay [24] deals with Alpha fetoprotein (UniProt P02771). Description: anti-AFP capture beads, flow cytometry; AFP 10.0 ng/mL, anti-hCG probe.
The target in assay [25] is Human chorionic gonadotropin (human) (UniProt P01215). Put plainly: multiplex sandwich, MAB602 capture beads; hCG 125 ng/mL, no wash.
Assay [26] has as its target Alpha fetoprotein (UniProt P02771). Description: anti-AFP capture beads, flow cytometry; AFP 100.0 ng/mL, anti-hCG probe.
Assay [27] concerns the target Human chorionic gonadotropin (human) (UniProt P01215). Put plainly: multiplex no-wash sandwich, MAB602 beads; Unknown serum, hCG computed 218.55 mU/mL.
The target is the same in assay [28]. Description: multiplex sandwich, MAB602 capture beads; hCG 1000 ng/mL, no wash.
Assay [29] shares this target. Put plainly: multiplex sandwich, MAB602 capture beads; hCG 2000 ng/mL, washed.
Assay [30] has the same target. Put plainly: multiplex sandwich, MAB602 capture beads; hCG 31 ng/mL, washed.
The target is the same in assay [31]. Put plainly: multiplex sandwich, MAB602 capture beads; hCG 4 ng/mL, washed.
Assay [32] shares this target. Put plainly: multiplex sandwich, MAB602 capture beads; hCG 0 ng/mL, washed.
Assay [33] shares this target. Description: multiplex sandwich, MAB602 capture beads; hCG 2 ng/mL, no wash.
Assay [34] has as its target Alpha fetoprotein (UniProt P02771). Put plainly: MAB602 capture beads, flow cytometry; AFP 10.0 ng/mL, anti-hCG probe.
The target in assay [35] is Human chorionic gonadotropin (human) (UniProt P01215). Put plainly: multiplex sandwich, MAB602 capture beads; hCG 1 ng/mL, washed.
Assay [36] shares this target. Description: multiplex no-wash sandwich, MAB602 beads; serum Level 3D, hCG 218 mU/mL.
For assay [37] the target is unchanged. Put plainly: sandwich, MAB602 capture beads, flow cytometry; hCG 0.2 ng/mL.
Assay [38] shares this target. Put plainly: multiplex no-wash sandwich, MAB602 beads; Negative serum, hCG 10 mU/mL as printed.
Assay [39] has the same target. Description: multiplex no-wash sandwich, MAB602 beads; serum Level 3, hCG 436 mU/mL.

Sequence of UniProt P01215 (P01215 25-116, chain 1 of 2, other chains not shown): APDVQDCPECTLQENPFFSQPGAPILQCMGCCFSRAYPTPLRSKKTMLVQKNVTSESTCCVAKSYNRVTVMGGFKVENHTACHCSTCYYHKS
Sequence of UniProt P02701 (P02701 25-152 limits assumed): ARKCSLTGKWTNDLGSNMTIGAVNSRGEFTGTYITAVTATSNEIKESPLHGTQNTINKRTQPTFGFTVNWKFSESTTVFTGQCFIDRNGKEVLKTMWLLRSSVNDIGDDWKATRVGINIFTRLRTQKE
Sequence of UniProt P02771 (P02771 19-609 limits assumed): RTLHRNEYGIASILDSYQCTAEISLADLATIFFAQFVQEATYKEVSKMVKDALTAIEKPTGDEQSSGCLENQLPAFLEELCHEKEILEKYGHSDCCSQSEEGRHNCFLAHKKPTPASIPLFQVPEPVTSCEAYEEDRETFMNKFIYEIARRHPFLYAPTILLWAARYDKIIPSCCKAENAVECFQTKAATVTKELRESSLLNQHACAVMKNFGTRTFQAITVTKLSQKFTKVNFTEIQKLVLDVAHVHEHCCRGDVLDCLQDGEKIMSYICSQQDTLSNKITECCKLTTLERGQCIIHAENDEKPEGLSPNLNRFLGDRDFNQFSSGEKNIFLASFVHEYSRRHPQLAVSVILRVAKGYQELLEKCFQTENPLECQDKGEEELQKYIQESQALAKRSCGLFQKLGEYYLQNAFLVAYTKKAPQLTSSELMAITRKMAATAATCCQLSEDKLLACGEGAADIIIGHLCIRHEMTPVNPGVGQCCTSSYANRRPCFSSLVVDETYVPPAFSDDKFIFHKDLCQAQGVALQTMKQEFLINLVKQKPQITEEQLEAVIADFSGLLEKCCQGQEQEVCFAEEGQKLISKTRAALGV

With “M20077 affinity purified polyclonal anti-AFP antibody, Bodipy FL-CASE labeled”, the figures for the MIF AVG in [1] and in [2] were 363 and 552, respectively. In addition, the MIF of FL1 in assay [1] was 351 and 365 and 372; in assay [2], 535 and 562 and 559. Moreover, the MIF of Fm stood at 44 in assay [3]; 205 in assay [4]; 108 in [5]; 35 in assay [6]; 347 in [7]; 1200 in assay [8]. For the same substance, the MIF of Fm came to 643 in [9]; 72 in assay [10]; 103 in assay [11]; 379 in assay [12]; 15 in assay [13].
MAB 384, Bodipy FL-X labeled (antibody): the MIF of Fm in [14] came out at 47; in [15], 60; in assay [16], 57; in [17], 43; in assay [18], 57; in assay [19] it was 23. For the same substance, the MIF of Fm in assay [20] is 27; in [21], 47.
“AB633 affinity purified polyclonal anti-hCG antibody, Bodipy FL-CASE labeled”: the MIF of Fm in assay [22] is 122 and 121; in [23], 1200; in assay [24], 44; in assay [25], 2070; in assay [26], 75; in [28], 770. Further, the MIF of Fm in assay [29] came out at 3190; in assay [30], 3180; in assay [31], 1300; in [32], 18; in assay [33] it was 650; in assay [34], 47. Further, the MIF of Fm in assay [35] is 359; in assay [37] it was 258 and 254. Further, the MIF AVG came to 272 in assay [27], 272 in [36], 7.33 in assay [38] and 624 in assay [39]. Also, the MIF of FL1 in assay [27] was 270 and 264 and 283; in assay [36], 268 and 276 and 271; in [38], 8 and 7; in [39], 631 and 601 and 640.
